Reference: publication PMC9879077
Where two headings read alike, the source gives them in different places.

Experiments:
[1] = biological target: T1, c-Fos;c-Jun (mouse (cDNA from ST2 cells);mouse (cDNA …, UniProt P01101;P05627 1-380;1-334, |)); assay: EMSA
[2] = biological target: T1, c-Fos;c-Jun; assay: EMSA; remark: listed apart in the source

T1 sequence (P01101 whole entry, chain 1 of 2): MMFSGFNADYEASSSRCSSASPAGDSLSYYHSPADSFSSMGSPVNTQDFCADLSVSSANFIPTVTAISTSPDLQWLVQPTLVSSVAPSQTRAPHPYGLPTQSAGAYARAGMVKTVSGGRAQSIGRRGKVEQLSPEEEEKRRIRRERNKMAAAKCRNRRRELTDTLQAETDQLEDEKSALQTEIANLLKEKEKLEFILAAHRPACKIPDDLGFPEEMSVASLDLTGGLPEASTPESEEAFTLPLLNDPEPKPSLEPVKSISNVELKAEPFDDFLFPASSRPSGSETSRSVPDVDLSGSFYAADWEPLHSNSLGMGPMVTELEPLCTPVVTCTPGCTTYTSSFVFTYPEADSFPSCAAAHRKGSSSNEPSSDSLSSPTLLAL
T1 sequence (P05627 whole entry, chain 2 of 2): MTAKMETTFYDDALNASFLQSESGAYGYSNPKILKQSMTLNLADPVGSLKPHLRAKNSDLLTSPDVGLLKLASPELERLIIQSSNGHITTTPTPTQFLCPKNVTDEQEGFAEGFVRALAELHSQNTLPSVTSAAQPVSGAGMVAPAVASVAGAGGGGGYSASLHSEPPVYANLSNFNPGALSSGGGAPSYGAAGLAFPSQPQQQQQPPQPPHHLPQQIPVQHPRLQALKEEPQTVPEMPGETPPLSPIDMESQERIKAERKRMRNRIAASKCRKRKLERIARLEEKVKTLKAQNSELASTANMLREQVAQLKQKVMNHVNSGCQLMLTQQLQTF

Row | Binder | binding result [1] | binding result [2]
1 | Oligo incl mutant TRE (dsDNA) DNA 1: TGTGACAATGTGACAGCTGTCACATTGTCACA DNA 2: GGTGTGACAATGTGACAGCTGTCACATTGTCACA | no binding | 
2 | Oligo incl TRE (dsDNA) DNA 1: TGAGTCAATGAGTCAGCTGACTCATTGACTCA DNA 2: GGTGAGTCAATGAGTCAGCTGACTCATTGACTCA |  | binds
